Measured values as given in doi:10.1101/2025.03.24.644901.

Biological target: MBP-SCC1 (aa 100-320) with C-terminal tetracysteine motif, FlAsH-labelled (human) (UniProt O60216)
Experiment: fluorescence polarisation

Chain of MBP-SCC1 (aa 100-320) with C-terminal tetracysteine motif, FlAsH-labelled (human) (O60216 100-320): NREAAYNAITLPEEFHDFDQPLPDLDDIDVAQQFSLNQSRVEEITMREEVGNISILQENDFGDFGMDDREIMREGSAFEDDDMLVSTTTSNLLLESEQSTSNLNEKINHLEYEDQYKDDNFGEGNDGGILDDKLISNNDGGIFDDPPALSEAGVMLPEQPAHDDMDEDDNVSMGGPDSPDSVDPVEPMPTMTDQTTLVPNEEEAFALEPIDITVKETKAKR

fold lower Kd than for SCC1^350–550: 3 fold
Substance: inactive apo-separase (separase^C2029S), Q14674 1-2120
